Test [1] addresses T1, Human α-syn PFF (human, UniProt P37840 1-140). In words: expression cloning screen of 352 transmembrane proteins in SH-SY5Y cells.
Test [2] deals with T2, α-syn-biotin PFF (biotin-labelled α-synuclein pre-formed fibrils) (mouse, UniProt O55042 1-140). In words: alkaline phosphatase binding assay on cultured cortical neurons, WT minus LAG3-/-.
The target in test [3] is T2, α-syn-biotin PFF (biotin-labelled …). In words: cell surface binding assay on cells overexpressing the deletion mutant.
The target in test [4] is T1, Human α-syn PFF. Put plainly: expression cloning screen in SH-SY5Y cells, streptavidin-AP staining.
Test [5] deals with α-syn-biotin PFF (biotin-labelled α-synuclein pre-formed fibrils) (mouse, UniProt O55042 1-140). Put plainly: cell surface binding on LAG3-overexpressing SH-SY5Y cells, Scatchard analysis; 0% or 0.1% Triton X-100 (the legend marks both values only 'TX-100').

As a reminder, the Kd is the equilibrium constant for the complex coming apart.

B1: APLP1 (NM_005166) expressed in SH-SY5Y cells (Origene GFC-transfection array clone) (receptor)
chain: SLAGGSPGAAEAPGSAQVAGLCGRLTLHRDLRTGRWEPDPQRSRRCLRDPQRVLEYCRQMYPELQIARVEQATQAIPMERWCGGSRSGSCAHPHHQVVPFRCLPGEFVSEALLVPEGCRFLHQERMDQCESSTRRHQEAQEACSSQGLILHGSGMLLPCGSDRFRGVEYVCCPPPGTPDPSGTAVGDPSTRSWPPGSRVEGAEDEEEEESFPQPVDDYFVEPPQAEEEEETVPPPSSHTLAVVGKVTPTPRPTDGVDIYFGMPGEISEHEGFLRAKMDLEERRMRQINEVMREWAMADNQSKNLPKADRQALNEHFQSILQTLEEQVSGERQRLVETHATRVIALINDQRRAALEGFLAALQADPPQAERVLLALRRYLRAEQKEQRHTLRHYQHVAAVDPEKAQQMRFQVHTHLQVIEERVNQSLGLLDQNPHLAQELRPQIQELLHSEHLGPSELEAPAPGGSSEDKGGLQPPDSKDDTPMTLPKGSTEQDAASPEKEKMNPLEQYERKVNASVPRGFPFHSSEIQRDELAPAGTGVSREAVSGLLIMGAGGGSLIVLSMLLLRRKKPYGAISHGVVEVDPMLTLEEQQLRELQRHGYENPTYRFLEERP
notes: whole, on cells; also called amyloid beta (A4) precursor-like protein 1
For B1, in test [1], the binding result was “binds”.

B2: mouse LAG3 (receptor)
chain: GPGKELPVVWAQEGAPVHLPCSLKSPNLDPNFLRRGGVIWQHQPDSGQPTPIPALDLHQGMPSPRQPAPGRYTVLSVAPGGLRSGRQPLHPHVQLEERGLQRGDFSLWLRPALRTDAGEYHATVRLPNRALSCSLRLRVGQASMIASPSGVLKLSDWVLLNCSFSRPDRPVSVHWFQGQNRVPVYNSPRHFLAETFLLLPQVSPLDSGTWGCVLTYRDGFNVSITYNLKVLGLEPVAPLTVYAAEGSRVELPCHLPPGVGTPSLLIAKWTPPGGGPELPVAGKSGNFTLHLEAVGLAQAGTYTCSIHLQGQQLNATVTLAVITVTPKSFGLPGSRGKLLCEVTPASGKERFVWRPLNNLSRSCPGPVLEIQEARLLAERWQCQLYEGQRLLGATVYAAESSSGAHSARRISGDLKGGHLVLVLILGALSLFLLVAGAFGFHWWRKQLLLRRFSALEHGIQPFPAQRKIEELERELETEMGQEPEPEPEPQLEPEPRQL
notes: whole, on cells; In the in vivo co-IP the protein came from brain stem lysates of mice; also called LAG3 full-length (FL); neuronal LAG3
B2 yielded a Kd in test [2] of 103 nM.

B3: mouse LAG3 deletion mutant ΔD1 (receptor)
chain: IASPSGVLKLSDWVLLNCSFSRPDRPVSVHWFQGQNRVPVYNSPRHFLAETFLLLPQVSPLDSGTWGCVLTYRDGFNVSITYNLKVLGLEPVAPLTVYAAEGSRVELPCHLPPGVGTPSLLIAKWTPPGGGPELPVAGKSGNFTLHLEAVGLAQAGTYTCSIHLQGQQLNATVTLAVITVTPKSFGLPGSRGKLLCEVTPASGKERFVWRPLNNLSRSCPGPVLEIQEARLLAERWQCQLYEGQRLLGATVYAAESSSGAHSARRISGDLKGGHLVLVLILGALSLFLLVAGAFGFHWWRKQLLLRRFSALEHGIQPFPAQRKIEELERELETEMGQEPEPEPEPQLEPEPRQL
notes: whole, on cells; Expressed in HEK293FT cells; also called D1 domain deletion mutant
For B3, the binding result in test [3] was “no binding”.

B4: LAG3 (NM_002286) expressed in SH-SY5Y cells (Origene GFC-transfection array clone) (receptor)
chain: LQPGAEVPVVWAQEGAPAQLPCSPTIPLQDLSLLRRAGVTWQHQPDSGPPAAAPGHPLAPGPHPAAPSSWGPRPRRYTVLSVGPGGLRSGRLPLQPRVQLDERGRQRGDFSLWLRPARRADAGEYRAAVHLRDRALSCRLRLRLGQASMTASPPGSLRASDWVILNCSFSRPDRPASVHWFRNRGQGRVPVRESPHHHLAESFLFLPQVSPMDSGPWGCILTYRDGFNVSIMYNLTVLGLEPPTPLTVYAGAGSRVGLPCRLPAGVGTRSFLTAKWTPPGGGPDLLVTGDNGDFTLRLEDVSQAQAGTYTCHIHLQEQQLNATVTLAIITVTPKSFGSPGSLGKLLCEVTPVSGQERFVWSSLDTPSQRSFSGPWLEAQEAQLLSQPWQCQLYQGERLLGAAVYFTELSSPGAQRSGRAPGALPAGHLLLFLILGVLSLLLLVTGAFGFHLWRRQWRPRRFSALEQGIHPPQAQSKIEELEQEPEPEPEPEPEPEPEPEPEQL
notes: The clone of the screen is named by NM_002286
B4: the binding result in test [4] is “binds”.

B5: LAG3 overexpressed in transfected cells (SH-SY5Y; HEK293FT) (receptor)
chain: B4 chain
For the molecule B5, in test [5], the Kd amounted to 71 nM.

The record behind these values is patent publication US20190194324A1 (Johns Hopkins, published 2019).
